Molecular target: T1, HA-tagged PPP3CA (calcineurin A subunit, PP2B) (UniProt Q08209 1-521, limits assumed)
T1 construct: Exogenously expressed in COS7 cells and immunoprecipitated with anti-HA antibody; not shown: HA tag
Assay: co-immunoprecipitation from co-transfected COS7 cells (anti-HA IP, anti-Flag blot)

B1: Flag-tagged ΔPDIIIT-C1958 (other, not shown: small tags and cut ends)
chain: MGLKMSCLKGFQMCVSSSSSSHDEAPVLNDKHLDVPPTPTGMMLPRDLGSTVWLDETGSCPDDGEIDPEA
notes: also called ΔPDIIIT mutant
Does B1 bind?
Result: no binding
